Assay results reported in paper PMC9722767.

System: T1, MsmR1 (Paenibacillus polymyxa SC2-M1 (SC2 derivative)), ORF:0fff1571
T1 sequence: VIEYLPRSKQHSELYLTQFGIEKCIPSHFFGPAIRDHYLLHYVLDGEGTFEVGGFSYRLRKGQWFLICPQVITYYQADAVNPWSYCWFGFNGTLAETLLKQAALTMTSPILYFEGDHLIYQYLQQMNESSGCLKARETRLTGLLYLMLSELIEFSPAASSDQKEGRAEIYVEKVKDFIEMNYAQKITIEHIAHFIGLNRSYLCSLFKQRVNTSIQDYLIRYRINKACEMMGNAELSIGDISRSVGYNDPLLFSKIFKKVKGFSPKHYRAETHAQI
Assay: EMSA
Details: Chemiluminescent EMSA kit (Beyotime); labeled probe about 0.4 uM, competitor about 4 uM, protein gradient; buffer, salt, pH and temperature not stated

“ACCATTTCCCGGGCAATCGGCTGCCGGGTGCGAATGGAATCGCCCAAGTCCCCTCGTGCCAGTTCACTTAGATAGGTCCCATATTGCTGTAGCCACGGCTTATCCAGCCCTAATTGCTCACGCAGCGCCTGTTTGGACTGTTCCGTGGCCTTGTCCCCGAGTATCGTTTCTGCCGGATCACCGGGAATAGCATGAATAATCGAAAACACGATAAGCGTCATCCCCA (double strand) [oppC3 upstream fragment]” was tested, and the binding was “binds”.

“ATATGATTTCTGTAGAACCTACTGCTATATTGTTGGATCTTATCAAGCTTTACACCATATGAACTTAGTTGACGCCTGCTACATAAAGATTCTTCTAAGTGCCTTTTTGGTGTGGATCTCTGATGATTATTATCTAAGAGAGGGGTTATTTTTCCCAA (double strand) [msmR1 promoter]” was tested, and the binding was “binds”.

“CAGAGGAAATGCATGTCCGTATTATCGGAGACAACACGATTTCCCGCAAAAATCATGCGGTCATTGTGTATGATCCGAAGAAACGCAACTTTTACTTGCTGCCAGGCGATTCGTCAGGCTTGGCGTATCACAATAACGAGGCGGTATATTCACCAGTGGAGCTGGCTGCTTATGACGTGATTCAGCTCGGGCGCAGCAAATTTATCTTTATTCCGCTGTGCGGCGCTCATTTCGAGTGGGA (double strand) [pppL upstream fragment]” was tested, and the binding was “binds”.

“CAGCAACGCACCTCAAGAGATTGCAGGTGTGAAGGTAGACAAAGTACTGGACTACTCGCAAGGCTTGGACGGACTTCCGCAGGAAAACGTACTCAAGTTTTTATTGGAGGACGGTTCTTGGTTCTGCCTGCGTCCTTCGGGCACAGAGCCTAAAATCAAAGTATACTTTGCAGTACGTGGTTCCTC (double strand) [PPSC2_23180 upstream fragment]” was tested, and the binding was “binds”.

With “CCGATTCATCTCATTTACGCATGGATATGTTGAGAAAAAGGAAATGCTCATAGCTAGAAAACTTTATACAATGAAAGAGAAATAAGCACTGTGAAATTCGACTTTTGATCATGGATTTCATATAATGTGAATTGCTTAAATTAGAGATTTAAC (double strand) [sucA upstream fragment]” the binding was “binds”.

“CGGAACAAATGGATCTTCGCAAAGAATACCTTCAAATCTTTCGAGGCTCTATCAAAAGCATACTTTTGAATGCTACGATTTATGATCCGAATGGAGATGATGTTACTCCTGAAAAATTAAGAAAAGAACAGGCTCAAATCGTTAAGCCATGAATTTAATTTTGTCT (double strand) [ydfp upstream fragment]” was tested, and the binding was “binds”.

With “GGACGAATCGCACATGAGGCTTTCCCCAACAAACGTGACAGTTTTAGAGCCTTGGGCAATTATGTAAAGAGAGGGCATGTTGAGGGTATGCGTCGGTTTCGACTCCGCGGATGCGCGCCTGAAACAAAGCTCTGGAATCGCTGTTTGGTGTAAACCATCCTTAGGCGTATGCCGTGCTATTTGCTTAGCTAACTCCGTAATGAGTTGGTTCAAACTTGTTCACCAATCCTTTTTCATTTAATCTGATATGAATATTGTAATTCAAACCGGACAGGAATAGGCAAGGAACGCGTATGAAT (double strand) [sdr3 upstream fragment]” the binding was “binds”.

With “TGATCTGGTAACACCGAACTTATTCGAGGCTTCACAGCTGGCGAAGAAAGGACCGATCACGACACTGGAGCAGATGCAGGAAGCGGCTGCTATTATCCACGAGCGTGGTGCTAAGCATGTGCTGATCAAGGACCGTGGCAAAATTCGCGCAGGTAAAGCGATGGATCTGCTGTATGACGGAATCACTTTTGACTGGTTTGAAGCGGATGTTGTACAAACCAACTTTACCCACGGTGCAGGCTGTACCACTTCGGCTGCGGTAACGGCTGGTTTGGCACAAGGGCTGACTGTAC (double strand) [pepF upstream fragment]” the binding was “binds”.
